Experiments:
[1] = test system: T1, Lys(Dnp)-ATNATX4X3PRIVGG-Lys(Abz), X4 = E, X3 = A
T1 sequence: KATNATEAPRIVGGK

[2] = test system: T2, Lys(Dnp)-ATNATX4X3PRIVGG-Lys(Abz), X4 = E, X3 = F
T2 sequence: KATNATEFPRIVGGK

[3] = test system: T3, Lys(Dnp)-ATNATX4X3PRIVGG-Lys(Abz), X4 = F, X3 = D
T3 sequence: KATNATFDPRIVGGK

[4] = test system: T4, Lys(Dnp)-ATNATX4X3PRIVGG-Lys(Abz), X4 = G, X3 = G
T4 sequence: KATNATGGPRIVGGK

[5] = test system: T5, Lys(Dnp)-ATNATX4X3PRIVGG-Lys(Abz), X4 = G, X3 = H
T5 sequence: KATNATGHPRIVGGK

[6] = test system: T6, Lys(Dnp)-ATNATX4X3PRIVGG-Lys(Abz), X4 = G, X3 = I
T6 sequence: KATNATGIPRIVGGK

[7] = test system: T7, Lys(Dnp)-ATNATX4X3PRIVGG-Lys(Abz), X4 = G, X3 = P
T7 sequence: KATNATGPPRIVGGK

[8] = test system: T8, Lys(Dnp)-ATNATX4X3PRIVGG-Lys(Abz), X4 = G, X3 = Q
T8 sequence: KATNATGQPRIVGGK

[9] = test system: T9, Lys(Dnp)-ATNATX4X3PRIVGG-Lys(Abz), X4 = G, X3 = S
T9 sequence: KATNATGSPRIVGGK

[10] = test system: T10, Lys(Dnp)-ATNATX4X3PRIVGG-Lys(Abz), X4 = G, X3 = Y
T10 sequence: KATNATGYPRIVGGK

[11] = test system: T11, Lys(Dnp)-ATNATX4X3PRIVGG-Lys(Abz), X4 = H, X3 = A
T11 sequence: KATNATHAPRIVGGK

[12] = test system: T12, Lys(Dnp)-ATNATX4X3PRIVGG-Lys(Abz), X4 = H, X3 = F
T12 sequence: KATNATHFPRIVGGK

[13] = test system: T13, Lys(Dnp)-ATNATX4X3PRIVGG-Lys(Abz), X4 = H, X3 = G
T13 sequence: KATNATHGPRIVGGK

[14] = test system: T14, Lys(Dnp)-ATNATX4X3PRIVGG-Lys(Abz), X4 = H, X3 = K
T14 sequence: KATNATHKPRIVGGK

[15] = test system: T15, Lys(Dnp)-ATNATX4X3PRIVGG-Lys(Abz), X4 = K, X3 = D
T15 sequence: KATNATKDPRIVGGK

[16] = test system: T16, Lys(Dnp)-ATNATX4X3PRIVGG-Lys(Abz), X4 = K, X3 = F
T16 sequence: KATNATKFPRIVGGK

[17] = test system: T17, Lys(Dnp)-ATNATX4X3PRIVGG-Lys(Abz), X4 = N, X3 = F
T17 sequence: KATNATNFPRIVGGK

[18] = test system: T18, Lys(Dnp)-ATNATX4X3PRIVGG-Lys(Abz), X4 = N, X3 = G
T18 sequence: KATNATNGPRIVGGK

[19] = test system: T19, Lys(Dnp)-ATNATX4X3PRIVGG-Lys(Abz), X4 = N, X3 = K
T19 sequence: KATNATNKPRIVGGK

[20] = test system: T20, Lys(Dnp)-ATNATX4X3PRIVGG-Lys(Abz), X4 = N, X3 = M
T20 sequence: KATNATNMPRIVGGK

[21] = test system: T21, Lys(Dnp)-ATNATX4X3PRIVGG-Lys(Abz), X4 = N, X3 = V
T21 sequence: KATNATNVPRIVGGK

[22] = test system: T22, Lys(Dnp)-ATNATX4X3PRIVGG-Lys(Abz), X4 = P, X3 = N
T22 sequence: KATNATPNPRIVGGK

[23] = test system: T23, Lys(Dnp)-ATNATX4X3PRIVGG-Lys(Abz), X4 = P, X3 = P
T23 sequence: KATNATPPPRIVGGK

[24] = test system: T24, Lys(Dnp)-ATNATX4X3PRIVGG-Lys(Abz), X4 = Q, X3 = L
T24 sequence: KATNATQLPRIVGGK

[25] = test system: T25, Lys(Dnp)-ATNATX4X3PRIVGG-Lys(Abz), X4 = Q, X3 = Q
T25 sequence: KATNATQQPRIVGGK

[26] = test system: T26, Lys(Dnp)-ATNATX4X3PRIVGG-Lys(Abz), X4 = Q, X3 = T
T26 sequence: KATNATQTPRIVGGK

[27] = test system: T27, Lys(Dnp)-ATNATX4X3PRIVGG-Lys(Abz), X4 = Q, X3 = V
T27 sequence: KATNATQVPRIVGGK

[28] = test system: T28, Lys(Dnp)-ATNATX4X3PRIVGG-Lys(Abz), X4 = S, X3 = D
T28 sequence: KATNATSDPRIVGGK

[29] = test system: T29, Lys(Dnp)-ATNATX4X3PRIVGG-Lys(Abz), X4 = S, X3 = F
T29 sequence: KATNATSFPRIVGGK

[30] = test system: T30, Lys(Dnp)-ATNATX4X3PRIVGG-Lys(Abz), X4 = S, X3 = G
T30 sequence: KATNATSGPRIVGGK

[31] = test system: T31, Lys(Dnp)-ATNATX4X3PRIVGG-Lys(Abz), X4 = S, X3 = P
T31 sequence: KATNATSPPRIVGGK

[32] = test system: T32, Lys(Dnp)-ATNATX4X3PRIVGG-Lys(Abz), X4 = S, X3 = Q
T32 sequence: KATNATSQPRIVGGK

[33] = test system: T33, Lys(Dnp)-ATNATX4X3PRIVGG-Lys(Abz), X4 = S, X3 = S
T33 sequence: KATNATSSPRIVGGK

[34] = test system: T34, Lys(Dnp)-ATNATX4X3PRIVGG-Lys(Abz), X4 = T, X3 = E
T34 sequence: KATNATTEPRIVGGK

[35] = test system: T35, Lys(Dnp)-ATNATX4X3PRIVGG-Lys(Abz), X4 = V, X3 = D
T35 sequence: KATNATVDPRIVGGK

[36] = test system: T36, Lys(Dnp)-ATNATX4X3PRIVGG-Lys(Abz), X4 = V, X3 = L
T36 sequence: KATNATVLPRIVGGK

[37] = test system: T37, Lys(Dnp)-ATNATX4X3PRIVGG-Lys(Abz), X4 = Y, X3 = D
T37 sequence: KATNATYDPRIVGGK

[38] = test system: T38, Lys(Dnp)-ATNATX4X3PRIVGG-Lys(Abz), X4 = Y, X3 = E
T38 sequence: KATNATYEPRIVGGK

[39] = test system: T39, Lys(Dnp)-ATNATX4X3PRIVGG-Lys(Abz), X4 = Y, X3 = I
T39 sequence: KATNATYIPRIVGGK

Substance: Human plasma purified Factor Xa
- FXa kcat/KM [1]: 4.3 M⁻¹ s⁻¹
- FXa kcat/KM [2]: 14 M⁻¹ s⁻¹
- FXa kcat/KM [3]: 63 M⁻¹ s⁻¹
- FXa kcat/KM [4]: 16 M⁻¹ s⁻¹
- FXa kcat/KM [5]: 58 M⁻¹ s⁻¹
- FXa kcat/KM [6]: 88 M⁻¹ s⁻¹
- FXa kcat/KM [7]: 7.5 M⁻¹ s⁻¹
- FXa kcat/KM [8]: 94 M⁻¹ s⁻¹
- FXa kcat/KM [9]: 49 M⁻¹ s⁻¹
- FXa kcat/KM [10]: 34 M⁻¹ s⁻¹
- FXa kcat/KM [11]: 53 M⁻¹ s⁻¹
- FXa kcat/KM [12]: 42 M⁻¹ s⁻¹
- FXa kcat/KM [13]: 47 M⁻¹ s⁻¹
- FXa kcat/KM [14]: 28 M⁻¹ s⁻¹
- FXa kcat/KM [15]: 45 M⁻¹ s⁻¹
- FXa kcat/KM [16]: 35 M⁻¹ s⁻¹
- FXa kcat/KM [17]: 14 M⁻¹ s⁻¹
- FXa kcat/KM [18]: 9.2 M⁻¹ s⁻¹
- FXa kcat/KM [19]: 14 M⁻¹ s⁻¹
- FXa kcat/KM [20]: 27 M⁻¹ s⁻¹
- FXa kcat/KM [21]: 17 M⁻¹ s⁻¹
- FXa kcat/KM [22]: 580 M⁻¹ s⁻¹
- FXa kcat/KM [23]: 14 M⁻¹ s⁻¹
- FXa kcat/KM [24]: 480 M⁻¹ s⁻¹
- FXa kcat/KM [25]: 1400 M⁻¹ s⁻¹
- FXa kcat/KM [26]: 920 M⁻¹ s⁻¹
- FXa kcat/KM [27]: 430 M⁻¹ s⁻¹
- FXa kcat/KM [28]: 10 M⁻¹ s⁻¹
- FXa kcat/KM [29]: 17 M⁻¹ s⁻¹
- FXa kcat/KM [30]: 24 M⁻¹ s⁻¹
- FXa kcat/KM [31]: 13 M⁻¹ s⁻¹
- FXa kcat/KM [32]: 45 M⁻¹ s⁻¹
- FXa kcat/KM [33]: 40 M⁻¹ s⁻¹
- FXa kcat/KM [34]: 15 M⁻¹ s⁻¹
- FXa kcat/KM [35]: 70 M⁻¹ s⁻¹
- FXa kcat/KM [36]: 330 M⁻¹ s⁻¹
- FXa kcat/KM [37]: 36 M⁻¹ s⁻¹
- FXa kcat/KM [38]: 54 M⁻¹ s⁻¹
- FXa kcat/KM [39]: 66 M⁻¹ s⁻¹
